Measured values: patent US20130177528A1, “COMPOSITIONS AND METHODS FOR INHIBITING VIRAL INFECTION” (WESTERN UNIVERSITY OF HEALTH SCIENCES, priority 2011, published 2013)

Key:
Format in all cases: cell-based, herpes simplex virus type-1
[1] = tested on: HSV-1 (KOS) gL86; test: HSV-1 entry into natural target cells (HeLa, human corneal fibroblasts), cells pre-incubated with CN (Example 9); settings: for HSV-1 entry (β-galactosidase activity, OD 410): 25 pfu/cell, 6 h
Experimental: In this experiment (A) HeLa and (B) primary cultures of human corneal fibroblasts (CF) were used. They were either pre-treated with contortrostatin (CN) at indicated concentrations or mock-treated (positive control [+]) with phosphate saline buffer for 90 min at room temperature. β-galactosidase-expressing recombinant virus herpes simplex virus type-1 (HSV-1; KOS) gL86 (25 pfu/cell) was used to infect cells. Uninfected cells were kept as negative control (−). After 6 h, the cells were washed, permeabilized and incubated with […] expressed from the input viral genome. The enzymatic activity was measured at an optical density of 410 nm (OD 410). Error bars represent SD. a=significant difference from controls and/or treatments (P<0.05, t-test).
To confirm blocking activity of CN on HSY-I entry, HeLa and primary cultures of human CF were used. It has been shown that HeLa and human CF naturally express gD receptors. […] This raises the possibility that the effect of CN can be more pronounced in the natural target cells and that it may not depend on gD receptors. […] The inhibitory effect is likely dependent on the type of integrins expressed on the surface of cells.

[2] = tested on: HSV-1 strains F, G, and MP; test: Infection of nectin-1 CHO Igβ cells by clinical HSV-1 strains, virus pre-incubated (Example 4); settings: MP at 25 pfu/cell pre-incubated 90 min
Experimental: In this experiment different clinical strains of HSV-1 (F, G, and MP strains of HSV-1 [37] at 25 pfu/cell) were either pre-incubated with 1×PBS (control) or with CN at the concentrations indicated in FIG. 8, panel A for 90 min at room temperature. After 90 min of incubation the two pools of viruses were incubated with Nectin-1 receptor expressing CHO Igβ cells that express β-galactosidase upon viral entry as described. The viral infection blocking was measured by ONPG assay (FIG. 8, panel A). Similar experiment was conducted using Lac Z encoded HSV-2 (333 gJ-reporter virus). HSV-2 is a genital herpes virus. […] Each value shown is the mean of three or more determinations (±SD).

[3] = tested on: HSV-1 (804) strain; test: HSV-1 plaque assay in HeLa cells (Example 11); settings: 10 μM, 0.01 PFU/cell, 24 h post-infection
Experimental: (A) In this experiment nectin-1 Chinese hamster ovary (CHO) Ig8 cells that express β-galactosidase upon viral entry were pre-treated with 10 μM contortrostatin (CN; indicated as treated [Tr]) or mock treated (indicated as untreated [Un]) with phosphate saline buffer for 90 min at room temperature followed by infection using clinical isolates of herpes simplex virus type-1 (HSV-1; F,G, and MP at 25 pfu/cell) for 6 h. The viral entry blocking was measured by o-nitro-phenyl-β-o-galactopyranoside (ONPG) assay as previously described. Error bars represent SD. (B) Confluent monolayers of HeLa cells were infected with HSV-1 (804) strain at 0.01 PFU/cell in presence (panel i) and absence (panel ii) of CN for 2 h at 37° C. Viral replication in HeLa cells were visualized 24 h post-infection for plaques. a=significant differences from corresponding mock-treated controls (P<0.05, t-test).
Viral plaque assay. Confluent layers of RPE cells in glass bottom dishes were infected with CMV Ad169 strain in the presence and absence of CN at 0.01 PFU per cell for 2 hrs. This was followed by extensive but gentle washing three times with DMEM media followed by feeding cells with DMEM media. The cells were then incubated at 37° C. for thee days. […] The number of plaques formed were then visualized and quantified as indicated. […] The cells were again washed 5× in PBS and the numbers of plaques were counted. […]

[4] = tested on: HSV-1 (KOS) gL86; test: HSV-1 infection of HeLa cells at MOIs 5, 15 and 25 PFU/cell (Example 6); settings: virus pre-incubated 180 min, 6 hr
Experimental: HeLa cells were each grown to 100% confluency in 96-well plates. The β-galactosidase-expressing recombinant virus HSV-1 (KOS) HSV-1 gL86 […] was pre-incubated at MOIs of 5 (FIG. 10, panel A), 15 (FIG. 10, panel B) and 25 (FIG. 10, panel C) plaque-forming units per cell (PFU) with VCN (VN), CN or ADAM15 (Ad15) at the concentrations indicated or mock treated with 1 X phosphate saline buffer for 180 min at room temperature. After 6 hr, the cells were washed, permeabilized and incubated with ONPG substrate (3.0 mg/ml). The β-gal enzymatic activity was measured at an optical density of 410 nm (OD 410). Mock treated HSV-1 with PBS was used as a […] control ((+) infected with virus alone; (−) uninfected control).

[5] = tested on: HSV-1 (KOS) gL86; test: HSV-1 infection of HeLa, Vero and 293T cells, virus pre-incubated (Example 3); settings: virus 30 pfu/cell pre-incubated 90 min, 6 hr
Experimental: CN blocks herpes simplex virus type-1 (HSV-1) infection of natural target cells. HeLa, Vero and 293T cells were each grown to 100% confluency in 96-well plates. The β-galactosidase-expressing recombinant virus HSV-1 (KOS) HSV-1 gL86 (30 pfu/cell) was pre-incubated with CN at the concentration indicated in FIG. 7 or mock treated with 1 X phosphate saline buffer for 90 min at room temperature. After 6 hr, the cells were washed, permeabilized and incubated with ONPG substrate (3.0 mg/ml). The β-gal enzymatic activity was measured at an optical density of 410 nm (OD 410). Each value shown in FIG. 7 is the mean of three or more determinations (±SD). Mock treated HSV-1 with PBS was used as a control. HSV-1 infection of HeLa (panel A) and Vero and 293T cells (panel B) was blocked by CN.

B1: contortrostatin (protein)
chain: DAPANPCCDAATCKLTTGSQCADGLCCDQCKFMKEGTVCRRARGDDLDDYCNGISAGCPRNPFHA
With B1 the “HSV-1 entry (β-galactosidase activity, OD 410)” value ([1]; HeLa cells pre-incubated 90 min) was “significant blocking of HSV-1 entry”, the “concentration at which strong inhibition of entry was observed” value ([1]; natural target cells (HeLa and CF)) was < 1 µM and the “HSV-1 entry (β-galactosidase activity, OD 410)” value ([1]; primary human corneal fibroblasts (CF) pre-incubated 90 min) was “significant blocking of HSV-1 entry”. The “HSV-1 infection blocking activity across viral strains (ONPG assay)” value [2] was “not viral-strain specific”, the HSV-1 plaque formation [3] was “blocked the plaque formation” and the “HSV-1 infection of HeLa cells, blocking and rank order (β-gal activity, OD 410)” value [4] was “blocked by CN >VCN >ADAM15”. For the same molecule, the “HSV-1 infection (β-gal activity, OD 410)” value ([5]; 293T cells) was “blocked”, the “HSV-1 infection (β-gal activity, OD 410)” value ([5]; HeLa cells) was “blocked” and the “HSV-1 infection (β-gal activity, OD 410)” value ([5]; Vero cells) was “blocked”.
